# T1: canine CAPRIN-1, endogenous (canine tissue sections; serum of cancer-bearing dogs) (dog, UniProt A0A8I3S8S8 2-717)
# T1 construct: Endogenous protein or fragment of it; also called antigen polypeptide contained in specimens (dog)
# T1 sequence: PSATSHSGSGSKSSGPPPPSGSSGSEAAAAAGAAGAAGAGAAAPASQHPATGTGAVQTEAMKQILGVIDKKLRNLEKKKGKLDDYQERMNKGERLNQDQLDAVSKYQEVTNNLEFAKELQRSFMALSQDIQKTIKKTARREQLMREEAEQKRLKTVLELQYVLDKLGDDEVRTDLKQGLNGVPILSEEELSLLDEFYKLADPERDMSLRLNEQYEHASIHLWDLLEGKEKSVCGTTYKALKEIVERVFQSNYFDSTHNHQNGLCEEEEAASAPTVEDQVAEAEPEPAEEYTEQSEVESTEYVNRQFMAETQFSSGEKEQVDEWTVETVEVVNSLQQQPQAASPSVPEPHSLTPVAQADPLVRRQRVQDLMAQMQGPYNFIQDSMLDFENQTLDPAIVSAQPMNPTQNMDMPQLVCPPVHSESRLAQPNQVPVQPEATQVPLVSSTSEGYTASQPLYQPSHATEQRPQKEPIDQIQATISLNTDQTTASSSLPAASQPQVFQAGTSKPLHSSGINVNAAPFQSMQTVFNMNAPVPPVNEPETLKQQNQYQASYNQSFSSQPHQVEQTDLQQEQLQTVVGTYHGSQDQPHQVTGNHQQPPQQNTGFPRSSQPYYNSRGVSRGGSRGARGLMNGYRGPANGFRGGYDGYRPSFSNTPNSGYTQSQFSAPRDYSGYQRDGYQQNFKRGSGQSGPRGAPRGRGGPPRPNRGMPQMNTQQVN
# Tests used:
# [1] = molecular target: T1, canine CAPRIN-1, endogenous (canine …); experiment: sandwich ELISA: polyclonal anti-SEQ ID NO: 43 immobilised, serum of cancer-bearing dogs, monoclonal antibody 1 ug/ml as secondary antibody
# Source text: With the use of the polyclonal antibody against CAPRIN-1-derived peptide (SEQ ID NO: 43) obtained in Example 3 (1) and each monoclonal antibody against the CAPRIN-1 protein obtained in Example 3 (2) in combination, the antigen polypeptide itself contained in specimens (cancer-bearing living organism-derived serum) reacted positive upon cancer diagnosis using the polypeptide of CAPRIN-1 in Example 4 (1)-(3) was detected by Sandwich ELISA. The polyclonal antibody was used as a primary antibody and each monoclonal antibody was used as a secondary antibody. The serum protein level of the protein specifically reacting with each of the above antibodies was measured.
# The primary antibody was immobilized by adding the polyclonal antibody diluted to a concentration of 5 μg/ml with phosphate buffered saline to 96-well immobilizer amino plates (Nunc) at 100 μl/well and then shaking the plates at room temperature for 2 hours. Blocking was performed by adding a 50 mM sodium bicarbonate buffer solution (pH 8.4) (hereinafter, blocking solution) containing 0.5% BSA (bovine serum albumin, Sigma Aldrich Japan) at 100 μl/well and then shaking at room temperature for 1 hour. Subsequently, a cancer-bearing living organism-derived serum diluted using the blocking solution was added at 100 μl/well and then the resultants were shaken at room temperature for 3 hours for reaction. The dilution rate at this time was adjusted with 10-fold (10-1000-fold) dilution series. After 3 instances of washing with phosphate buffered saline (hereinafter, PBS-T) containing 0.05% Tween20 (Wako Pure Chemical Industries, Ltd.), each monoclonal antibody as a secondary antibody diluted to a concentration of 1 μg/ml with the blocking solution was added at 100 μl/well and then the resultants were shaken at room temperature for 1 hour for reaction. After 3 instances of washing with PBS-T, an HRP-labeled anti-mouse IgG (H+L) antibody (Invitrogen Corporation) as a tertiary antibody diluted 5000-fold with the blocking solution was added at 100 μl per well and then left to stand at room temperature for 1 hour. […]
# [2] = molecular target: feline CAPRIN-1, endogenous (serum of cancer-bearing cats) (cat); experiment: sandwich ELISA: polyclonal anti-SEQ ID NO: 43 immobilised, serum of cancer-bearing cats, monoclonal antibody 1 ug/ml as secondary antibody
Binder,absorbance at 450 nm (polypeptide level) [1],absorbance at 450 nm (polypeptide level) [2]
"monoclonal antibody #2 (antibody, V domains shown, mouse hybridoma monoclonal antibody; also called anti-CAPRIN-1 monoclonal antibody #2) VH: EVQLHQFGAELVKPGASVKISCKASGYTFTDYNMDWVKQSHGKSLEWIGDINPNYDSTSYNQKFKGKATLTVDKSSSTAYMELRSLTSEDTAVYYCARSRSYDYEGFAYWGQGTLVTVSA VL: DIQLTQSPASLSASVGETVTITCRASGNIHNYLAWYQQKQGKSPQLLVYNAKTLADGVPSRFSGSGSGTQYSLKINSLQPEDFGSYYCQHFWSTLTFGGGTKLEIK",≥ 0.3,> 0.3
"monoclonal antibody #3 (antibody, V domains shown, mouse hybridoma monoclonal antibody; also called anti-CAPRIN-1 monoclonal antibody #3) VH: EVQLHQFGAELVKPGASVKISCKASGYTFTDYNMDWVKQSHGKSLEWIGDINPNYDSTSYNQKFKGKATLTVDKSSSTAYMELRSLTSEDTAVYYCARSRSYDYEGFAYWGQGTLVTVSA VL: SGDRVSLSCRASQSISNYLHWYQQKSHESPRLLIKYASQSISGIPSRFSGSGSGTDFTLSINSVETEDFGMYFCQQSNSWPYTFGAGTKLEIKQ",≥ 0.3,–
"monoclonal antibody #6 (antibody, V domains shown, mouse hybridoma monoclonal antibody; also called anti-CAPRIN-1 monoclonal antibody #6) VH: LQESGAELARPGASVKLSCKASGYTFTSYWMQWVKQRPGQGLEWIGAIYPGDGDTRYTQKFKGKATLTADKSSSTAYMQLSSLASEDSAVYYCARGEYGNYFAYWGQGTTVTVSS VL: TSDASLGERVTITCKASQDINSYLSWFQQKPGKSPKTLIYRANRLVDGVPSRFSGSGSGQDYSLTISSLEYEDMGIYYCLQYDEFPLTFGGGTKLEIKQ",≥ 0.3,–
